Assays:
[1] = tested on: HER2+ breast cancer cells (CRL2351); assay: Cytokine secretion of interferon treated HER2 CAR macrophages in co-culture (MSD); assay type: cell-based, human; conditions: 150 nM CAR mRNA, E:T 3:1, 48 hours co-culture
Protocol: Human macrophages were electroporated with 150 nM HER2 CAR mRNA comprising m6AGCap1 and PsU modifications. HER2+ breast cancer cells (CRL2351) were co-cultured with CAR macrophages after the macrophages were transfected with the CAR mRNA at an Effector (CAR macrophage) to Target (cancer cell) ratio of 3:1. Supernatant was collected 48 hours after the cancer cells and macrophages were co-cultured and cytokine levels were measured using a Meso Scale Discovery (MSD) instrument.

[2] = tested on: human macrophages; assay: Viability, CAR expression and M1/M2 markers of HER2 CAR mRNA electroporated macrophages cultured with cytokines; assay type: cell-based; conditions: mRNA transfected CAR macrophages
Protocol: Human macrophages were electroporated with HER2 CAR mRNA comprising m6AGCap1 and PsU modifications. Cells were cultured with cytokines that induce an M1 phenotype such as IFN-alpha, IFN-beta, IFN-gamma, IFN-gamma plus lipopolysaccharide (LPS), TNF-alpha, IL-6 or a STING ligand (STING-L) for up to 48 hours and then cytokines were washed off and fresh media was added. CAR expression and M1 marker expression were measured on days 2 and 7 after transfection. Fluorescent labeled HER2+ breast cancer cells (CRL2351) were co-cultured with HER2 CAR macrophages two days after the macrophages were transfected. Cancer cell growth was monitored via its fluorescence on an Incucyte® live imaging microscope every four hours. The Effector (CAR macrophage) to Target (cancer cell) ratio was 5:1.
Five different mRNA modifications were also tested to determine if interferon treatment differentially affected macrophages transfected with mRNA comprising different modifications. Human macrophages were electroporated with HER2 CAR mRNA comprising different mRNA modifications. CAR expression and M1 markers were detected by Flow Cytometry (Attune) on day four after electroporation. Day 4 CAR macrophage cells were then co-cultured with a Nuc-Light labeled, HER2+ breast cancer cell line (CRL2351) at an Effector (CAR macrophage) to Target (cancer cell) ratio of 5:1. Cancer cell growth was monitored via its fluorescence on an Incucyte® live imaging microscope every four hours.
Human macrophages were electroporated with 300 nM CAR mRNA comprising m6AGCap1 and PsU modifications. Cells were cultured with 20 ng/mL IFNs for 24 hours and then the cells were washed to remove cytokines. CAR expression was detected by Flow Cytometry (Attune) on day 2 after transfection. Cells were then co-cultured with a Nuc-Light labeled, HER2+ breast cancer cell line (CRL2351) at the Effector to Target ratio of 3:1. Cancer cell growth was monitored via its fluorescence on an Incucyte® live imaging microscope. CAR expression and M1 markers in macrophages were detected by Flow Cytometry (Attune) on day 7 after transfection.

[3] = tested on: Her2-Zeta CAR expressing macrophages; assay: M1 and M2 surface marker expression after agonist priming (flow cytometry); assay type: cell-based, human; conditions: mRNA transduced CAR macrophages, 3 days on agonist coated wells
Protocol: (§1) To generate Her2-Zeta CAR expressing macrophages, primary human macrophages were suspended in EP buffer (MaxCyte) containing 300 nM mRNA (TriLink) at a concentration of 90×10^6 cells/mL. 100 μL of cell mixture was added to an electroporation cassette (OC100×2; MaxCyte) and electroporated using the Experimental T cell 1 setting. Cells were removed from the cassette, plated in 3 mL of TexMACS media (Miltenyi Biotech) containing 20% FBS (Gibco) on UpCell plates (Thermo Scientific), and incubated overnight at 37 C and 5% CO2.
(§2) Recombinant CD40 ligand (Peprotech), 4-1BB ligand (Enzo Life Sciences), and 4-1BB receptor (Peprotech) were resuspended in molecular grade water to a stock concentration of 100 μg/mL. Stock solution was then used to create working solutions in PBS ranging from 2-0.002 μg/mL. 100 uL of working solution was added to wells in a 96-well plate and left at room temperature for 4 h.
For detection of cell surface proteins, macrophages were plated onto wells coated with agonist molecules in a final volume of 200 uL TexMACS media+10% FBS+10 ng/mL GM-CSF and incubated for 3 days at 37 C and 5% CO2. Cells were incubated in 300 μL Accutase (Sigma) for 30 min and transferred to 96-well round bottom plate for staining. Cells were incubated in FACS buffer containing 20 μg/mL Her2-His for 20 min at RT, followed by incubation in Human TruStain FcX for 10 min at RT. […]

[4] = tested on: CRL-2351 cells expressing nuclear GFP; assay: Tumor cell killing by macrophages primed on agonist coated plates (Incucyte); assay type: cell-based, human; conditions: plate-coated agonist, 3 h priming
Protocol: as §1, §2
Plates were removed from the incubator and left at room temperature for 30 min. Cells were detached from plate, counted using the NC-200 automated cell counter (Chemomtech), and re-suspended in TexMACS media with 10% FBS. […] Cell lysis was detected using Incucyte® analysis (Essen Bioscience). Tumor cell death was calculated by integrated GFP intensity per well relative to time 0.

[5] = tested on: human macrophages; assay: mCherry mRNA expression in transfected macrophages (Incucyte); assay type: cell-based; conditions: mCherry mRNA (m6AGCap1 and PsU or N1mPsU), one day, different doses
Protocol: Human macrophages were transfected with mCherry mRNA comprising m6AGCap1 and PsU or N1mPsU modifications and were then cultured for one day with different doses of IFN-γ. mCherry expression was monitored on an Incucyte® live imaging microscope.
In order to determine whether an RNaseL inhibitor could rescue IFN-γ-induced instability of transfected mRNA, human macrophages were treated with 1 μM sunitinib (an RNaseL inhibitor) two hours prior to the transfection of mCherry mRNA comprising m6AGCap1 and PsU modifications. Transfected cells were then cultured for one day with different dosages of IFN-γ. mCherry expression was monitored on an Incucyte® live imaging microscope.
The effect of another RNaseL inhibitor (RLI or ABCE1) was also tested to further validate the concept. Human macrophages were co-transfected with mRNA encoding mCherry comprising m6AGCap 1 and PsU modifications and with mRNA encoding ABCE1.

Row | Molecule | secretion of the cytokines IL-6, IL-8 and TNFα [1] | M1 phenotype (based on CD86 expression) [2] | M2 markers (based on CD163 expression) [2] | M1 phenotype (expression of M1 and M2 markers) [3] | tumor killing ability of macrophages and CAR macrophages [4] | mCherry expression [5]
1 | IFN-α | increased secretion | induction of an M1 phenotype | reduction of M2 markers | – | – | –
2 | CD40L: Recombinant CD40 ligand (Peprotech), CD40 agonist (protein, UniProt P29965 113-261, looked up) CD40 ligand, soluble form: MQKGDQNPQIAAHVISEASSKTTSVLQWAEKGYYTMSNNLVTLENGKQLTVKRQGLYYIYAQVTFCSNREASSQAPFIASLCLKSPGRFERILLRAANTHSSAKPCGQQSIHLGGVFELQPGASVFVNVTDPSQVSHGTGFTSFGLLKL | – | – | – | induced an M1 phenotype | significantly improved the tumor killing ability | –
3 | IFN-γ: interferon cytokine that induces an M1 phenotype (protein, UniProt P01579 24-161, looked up) Interferon gamma: QDPYVKEAENLKKYFNAGHSDVADNGTLFLGILKNWKEESDRKIMQSQIVSFYFKLFKNFKDDQSIQKSVETIKEDMNVKFFNSNKKKRDDFEKLTNYSVTDLNVQRKAIHELIQVMAELSPAAKTGKRKRSQMLFRG | increased secretion | induction of an M1 phenotype | reduction of M2 markers | – | – | reduced mCherry mRNA expression

Source: patent publication US11739297B2, “Method of increasing tumor killing activity of macrophages or monocytes comprising chimeric antigen receptor” (Carisma Therapeutics Inc., priority 2020, dated 2023)
